In patent publication US7888090B2, “Mutants of O6-alkylguanine-DNA alkyltransferase” (Ecole Polytechnique Federale de Lausanne, priority 2004, dated 2011):
Changes are numbered by the printed parent chain.

B1: Lys32lle, Leu33Phe, Asn150Gly, lle151Gly, Asn152Asp, Ala154Asp: AGT mutant having all mutations of AGTM and additionally those listed (protein, UniProt P16455 1-207, looked up, variant K32I L33F C62A Q115S Q116H K125A A127T R128A G131K G132T M134L R135S C150G S151G S152D A154D N157G S159E del183-207)
Methylated-DNA--protein-cystei …: MDKDCEMKRTTLDSPLGKLELSGCEQGLHEIIFLGKGTSAADAVEVPAPAAVLGGPEPLMQATAWLNAYFHQPEAIEEFPVPALHHPVFQQESFTRQVLWKLLKVVKFGEVISYSHLAALAGNPAATAAVKTALSGNPVPILIPCHRVVGGDGDVGGYEGGLAVKEWLLAHEGHRLGKPGLG
B2: Asn150Glu, lle151Gly, Asn152Glu, Ala154Arg: AGT mutant having all mutations of AGTM and additionally those listed (protein, UniProt P16455 1-207, looked up, variant C62A Q115S Q116H K125A A127T R128A G131K G132T M134L R135S C150E S151G S152E A154R N157G S159E del183-207)
Methylated-DNA--protein-cystei …: B1 Methylated-DNA--protein-cystei … with I32K, F33L, G150E, D152E, D154R
B3: Asn150Glu, lle151Ser, Asn152His, Ala154Lys: AGT mutant having all mutations of AGTM and additionally those listed (protein, UniProt P16455 1-207, looked up, variant C62A Q115S Q116H K125A A127T R128A G131K G132T M134L R135S C150E S152H A154K N157G S159E del183-207)
Methylated-DNA--protein-cystei …: B1 Methylated-DNA--protein-cystei … with I32K, F33L, G150E, G151S, D152H, D154K
B4: Lys32lle, Leu33Phe, Ala154Thr: AGT mutant having all mutations of AGTM and additionally those listed (protein, UniProt P16455 1-207, looked up, variant C62A Q115S Q116H K125A A127T R128A G131K G132T M134L R135S C150N S151I S152N N157G S159E del183-207 K32I L33F A154T)
Methylated-DNA--protein-cystei …: B1 Methylated-DNA--protein-cystei … with G150N, G151I, D152N, D154T
B5: Asn150Glu, lle151Gly, Asn152Arg, Gly153Glu, Ala154Arg: AGT mutant having all mutations of AGTM and additionally those listed (protein, UniProt P16455 1-207, looked up, variant C62A Q115S Q116H K125A A127T R128A G131K G132T M134L R135S C150E S151G S152R G153E A154R N157G S159E del183-207)
Methylated-DNA--protein-cystei …: B1 Methylated-DNA--protein-cystei … with I32K, F33L, G150E, D152R, G153E, D154R
B6: Asn150Val, lle151Asn, Asn152Asp, Gly153Leu, Ala154Asp: AGT mutant having all mutations of AGTM and additionally those listed (protein, UniProt P16455 1-207, looked up, variant C62A Q115S Q116H K125A A127T R128A G131K G132T M134L R135S C150V S151N S152D G153L A154D N157G S159E del183-207)
Methylated-DNA--protein-cystei …: B1 Methylated-DNA--protein-cystei … with I32K, F33L, G150V, G151N, G153L
B7: Lys32lle, Leu33Phe, Gly182Val: AGT mutant having all mutations of AGTM and additionally those listed (protein, UniProt P16455 1-207, looked up, variant K32I L33F C62A Q115S Q116H K125A A127T R128A G131K G132T M134L R135S C150N S151I S152N N157G S159E G182V del183-207)
Methylated-DNA--protein-cystei …: B1 Methylated-DNA--protein-cystei … with G150N, G151I, D152N, D154A, G182V

Test: BG-Cy3 activity assay (reaction rate of AGT mutants)
Type: biochemical
Settings: divided by value for wild type hAGT
Experimental: Reactivity against DNA-based substrates measured with a BG-Cy3 assay: BG-Cy3 is prepared by reacting the previously described O^6-(4-aminomethyl-benzyl)guanine (Keppler et al., NatureBiotechnol. 21:86-89, 2003) with the commercially available N-hydroxysuccinimide ester of Cy3, (Cy3-NHS, Amersham). The coupling reaction is performed at ambient temperature in N,N-dimethylformamide in the presence of 1 eq. of triethylamine. The BG-Cy3 conjugate is purified by reversed-phase HPLC on a C18-column by using linear gradients from 0.1% trifluoroacetic acid to acetonitrile. After solvent evaporation BG-Cy3 is dissolved in dimethyl sulfoxide and stored at −20° C. For measuring the reactivity with DNA-based substrates, a reaction mixture containing different concentrations (0 to 5 µM) of oligonucleotide SEQ ID NO:2 (modified in position 14), GST-AGT fusion protein at 0.2 µM and BG-Cy3 at […] in reaction buffer (50 mM HEPES, pH 7.2, 1 mM DTT, 200 mg/ml BSA) is incubated in microtiterplates. Fluorescence of the Cy3 derivative (excitation 519 nm, emission at 572 nm) is measured on a Spectramax Gemini plate reader (Molecular Devices).
The amplified products are cloned in fusion to the g3 gene of filamentous phage in the vector pAK100 via SfiI restriction sites. The resulting gene libraries are used for phage display as described under Example 4. The mutants of the libraries are selected with 5 to 50 nM of BG-Bt for 10 min. Selected mutants are subcloned into pGEX using the primers SEQ ID NO:3 and SEQ ID NO:13. The reaction rate of mutant AGTs is determined as described in Example 6, Reactivity against DNA-based substrates (BG-Cy3 assay).
For the activity assay purified GST fusion proteins were used for mutants marked with “p.” (prepared as described under Example 1); periplasmic extracts were used for mutants marked with “x.” (prepared as described under Example 2).

[1] = purified GST fusion proteins (p.)

Molecule	Relative reaction rate [1]	Relative reaction rate (periplasmic extracts (x.))
B1	45.45	–
B2	18.42	–
B3	15.43	–
B4	33.89	–
B5	11.20	–
B6	15.67	–
B7	–	9.48
